In US20210292423A1:

Columns and labels:
[1] = target: human CD123 (IL3RA) on cells (human) (UniProt P26951); assay: cell-based or functional assay
[2] = target: Macaca fascicularis CD3ε/δ-Fc fusion protein (Macaca fascicularis) (UniProt Q95LI8); assay: SPR single point, hybridoma supernatant
[3] = target: Macaca fascicularis CD3ε/δ-Fc fusion protein (Macaca fascicularis) (UniProt Q95LI8); assay: SPR Biacore, ratio against human CD3εδ
[4] = target: Macaca fascicularis CD3ε/δ-Fc fusion protein (Macaca fascicularis) (UniProt Q95LI8); assay: SPR Biacore, Fab
[5] = target: human CD123 (IL3RA) on cells (human) (UniProt P26951); assay: flow cytometry, TF-1 cells, 3 µg antibody
[6] = target: human CD123 (IL3RA) on cells (human) (UniProt P26951); assay: flow cytometry, THP-1 cells, 3 µg antibody

Chain of human CD123 (IL3RA) on cells (human) (P26951 19-378): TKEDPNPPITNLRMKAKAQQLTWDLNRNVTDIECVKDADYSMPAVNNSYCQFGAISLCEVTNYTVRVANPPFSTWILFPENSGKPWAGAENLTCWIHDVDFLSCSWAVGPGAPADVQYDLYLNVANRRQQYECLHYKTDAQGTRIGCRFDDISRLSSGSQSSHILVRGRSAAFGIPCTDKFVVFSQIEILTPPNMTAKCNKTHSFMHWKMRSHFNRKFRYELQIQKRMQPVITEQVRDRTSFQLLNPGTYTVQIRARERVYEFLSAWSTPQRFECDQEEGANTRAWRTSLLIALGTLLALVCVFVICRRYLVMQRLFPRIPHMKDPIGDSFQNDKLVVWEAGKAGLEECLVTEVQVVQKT
Chain of Macaca fascicularis CD3ε/δ-Fc fusion protein (Macaca fascicularis) (chain, as listed by the source mutant, chain 1 of 2): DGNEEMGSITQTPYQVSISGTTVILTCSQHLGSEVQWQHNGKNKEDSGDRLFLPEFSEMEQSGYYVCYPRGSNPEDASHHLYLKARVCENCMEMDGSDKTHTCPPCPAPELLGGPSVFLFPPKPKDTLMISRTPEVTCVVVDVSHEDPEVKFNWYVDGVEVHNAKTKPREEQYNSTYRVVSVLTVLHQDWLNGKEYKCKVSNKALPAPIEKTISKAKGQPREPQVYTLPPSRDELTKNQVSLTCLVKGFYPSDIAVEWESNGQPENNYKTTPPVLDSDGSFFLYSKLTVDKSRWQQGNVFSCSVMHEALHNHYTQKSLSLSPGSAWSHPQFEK
Chain of Macaca fascicularis CD3ε/δ-Fc fusion protein (Macaca fascicularis) (Q95LI8 22-105, stated change not applied, chain 2 of 2): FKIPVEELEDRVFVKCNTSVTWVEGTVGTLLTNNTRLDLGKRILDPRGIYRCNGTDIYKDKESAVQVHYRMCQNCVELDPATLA

% FITC positive Cells [5] | % FITC positive Cells [6] | Binder | EC50 [ng/ml] geomean, cytotoxic assay on THP-1 [1] | also measured
9.3% | 24% | CODV-Fab BFX-2F8-D6 × CD3 (bispecific antibody, part only; not given: anti-CD3 arm, linkers, constant domains, V domains shown, not shown: another chain or arm of the molecule; a dimerising Fc or GST; small tags and cut ends) VH: QVQLKESGPGLVQPSQTLSLTCTVSGFSLTSYGVSWVRQPPGKGLEWIATISSAGSTYYDLVLKSRLSITRDTSKSQVFLKVHSLQTEDTAIYLCARDAPVFNYGSYNAMDSWGQGTSVTVSS VL: DIQMTQSPSFLSATVGDRVTINCKASQNINKYLNWYQQKLGEAPKRLIYNTNSLQTGIPSRFSGSGSGTDYTLTISSLQPEDVATYFCLQHKSGLTFGSGTKLEIK |  | 
50.2% | 88.7% | CODV-Fab BFX-9D7-C8 × CD3 (bispecific antibody, part only; not given: anti-CD3 arm, linkers, constant domains, V domains shown, not shown: another chain or arm of the molecule; a dimerising Fc or GST; small tags and cut ends) VL: DIVMTQSPSSLAVSEGETVTINCKSSQSFLSSGDGKNYVAWYQYKPGQSPKLLIYWASTRQSGVPDRFIGSGSGTDFTLTISTVQAEDLAIYYCQQYYDTPLTFGSGTKLEIK VH: EVKLQESGPSLVQSSQTLSLTCTVSGFSLTSYHIHWVRQTPGKGLEWMGVMWSDGDTSYNSALKSRLSISRDTSQSQVFLKMNSLQTEDTATYYCARGYYSSYLYLWFAYWGQGTLVTVSS | 86.3 ng/mL | 
31.6% | 99% | CODV-Fab BFX-3E3-D3 × CD3 (bispecific antibody, part only; not given: CD3 arm, linkers, constant domains, part only) light, part: QFVLTQPNSVSTNLGSTVKLSCKRNTGNIGSNYVNWYQQHEGRSPTTMIYRDDKRPDGVPDRFSGSIDRSSNSALLTINNVQTEDEADYFCQSYSSGINIIFGGGTKLTVL heavy, part: QVQLQESGPGLVQPSQTLSLTCTVSGFSLTTYDVHWVRQPPGKGLEWMGRIQNGGITDYNSALKSRLIISRDTSKSQVFLKMNSVQTEDTAMYFCAKTGSYFYAFDHWGQGTLVTVSS | 12.2 ng/mL | 

The remaining lines, values behind:

Binder | % FITC positive Cells [5] | % FITC positive Cells [6] | EC50 [ng/ml] geomean, cytotoxic assay on THP-1 [1] | also measured
CODV-Fab 7G3 × OKT3 (bispecific antibody, part only; not given: OKT3 arm, linkers, constant domains, part only) light, part: DFVMTQSPSSLTVTAGEKVTMSCKSSQSLLNSGNQKNYLTWYLQKPGQPPKLLIYWASTRESGVPDRFTGSGSGTDFTLTISSVQAEDLAVYYCQNDYSYPYTFGGGTKLEIK heavy, part: EVQLQQSGPELVKPGASVKMSCKASGYTFTDYYMKWVKQSHGKSLEWIGDIIPSNGATFYNQKFKGKATLTVDRSSSTAYMHLNSLTSEDSAVYYCTRSHLLRASWFAYWGQGTLVTVSA |  |  |  | Activity EC50 [ng/ml], cytotoxic assay on THP-1 with human T cells [1]: 16 ng/mL
5B1-G2 anti-CD3 antibody (hybridoma supernatant) (antibody, V domains shown) VH: EVQVVETGGSLVQPGKSLKLTCATSGFSFSNAWMHWVRQSPEKQLEWVAQIKDKANNYATYYAESVKGRFTISRDDSKGSIYLQMNSLKEEDTAVYYCRGLYYGLFPSDYWGQGVMVTVSS VL: DVVMTQTPVSLSVSLGGQVSISCRSSQSLVHNNGNTYLSWYLLKPGQSPQLLIYKVSNRFSGISDRFSGGGSGTDFTLKISRLEPDDLGIYYCGQGTQYPFTFGSGTKLEIK |  |  |  | RU at 25 nM [2]: 0.5 RU
5B1-G2 Fab (Fab, V domains shown) VH: EVQVVETGGSLVQPGKSLKLTCATSGFSFSNAWMHWVRQSPEKQLEWVAQIKDKANNYATYYAESVKGRFTISRDDSKGSIYLQMNSLKEEDTAVYYCRGLYYGLFPSDYWGQGVMVTVSS VL: DVVMTQTPVSLSVSLGGQVSISCRSSQSLVHNNGNTYLSWYLLKPGQSPQLLIYKVSNRFSGISDRFSGGGSGTDFTLKISRLEPDDLGIYYCGQGTQYPFTFGSGTKLEIK |  |  |  | Ratio KD(cy)/KD(hu) [3]: 1
12D2-E5 Fab (Fab, V domains shown) VH: EVKLVESGGGLVQPGRSLRLSCAASGFNFYAYWMGWVRQAPGKGLEWIGEIKKDGTTINYTPSLKDRFTISRDNAQNTLYLQMTKLGSEDTALYYCAREERDGYFDYWGQGVMVTVSS VL: QFVLTQPNSVSTNLGSTVKLSCKRSTGNIGSNYVNWYQQHEGRSPTTMIYRDDKRPDGVPDRFSGSIDRSSNSALLTINNVQTEDEADYFCQSYSSGIVFGGGTKLTVL |  |  |  | Ratio KD(cy)/KD(hu) [3]: 4
12D2-E5 anti-CD3 antibody (hybridoma supernatant) (antibody, V domains shown) VH: EVKLVESGGGLVQPGRSLRLSCAASGFNFYAYWMGWVRQAPGKGLEWIGEIKKDGTTINYTPSLKDRFTISRDNAQNTLYLQMTKLGSEDTALYYCAREERDGYFDYWGQGVMVTVSS VL: QFVLTQPNSVSTNLGSTVKLSCKRSTGNIGSNYVNWYQQHEGRSPTTMIYRDDKRPDGVPDRFSGSIDRSSNSALLTINNVQTEDEADYFCQSYSSGIVFGGGTKLTVL |  |  |  | RU at 25 nM [2]: 5 RU
CODV-Fab BFX-2B8-F3 × CD3 (bispecific antibody, part only; not given: CD3 arm, linkers, constant domains, part only) light, part: EIVLTQSPTSMTASPGEQVTITCRASSSINYMHWYQQKPGASPRPWIYETSKLASGVPDRFSGSASGTSYSLTINNMEAEDAATYYCQQWNYPSWTFGGGTKLELK heavy, part: EVQLVESGGGLVQPGRSLKLSCAASGFTFSDYNMAWVRQAPKKGLEWVATILYDGGRTYYRGSVKGRFTISRDNAKSTLYLRMDSLRSEDTATYYCATHSRGTDYFDYWGQGVMVTVSS |  |  | 107 ng/mL | 
CODV-Fab BFX-6B10-E4 × CD3 (bispecific antibody, part only; not given: CD3 arm, linkers, constant domains, part only) light, part: NIVMTQSPKSMSISVGDRVTMNCKASQTVGNNIAWYQQKPGLSPQLLIDYASNRYTGVPNRFTGGGYGTDFILTINSVQAEDAAFYYCQRMYNSPTFGGGTKLELK heavy, part: EVQLVESGGGLVQPGRSLKLSCAASGFTFSHYNMAWVRQAPKKGLEWVATITYDDHSTYYRDSVKGRFTISRDTAKSTLYLQMDSLRSEDTATYYCARLVNYAFAYWGQGTLVTVSS |  |  | 39.7 ng/mL | 
humanized 4B4 Fab 4B4_11 (VL1_CM3, VH6_BM2) (Fab, V domains shown) VH: QVQLVESGGRVVQPGRSLRLTCAASGFTFSNAWMHWVRQAPGKQLEWVAQIKARSNNYATYYAESVKGRFTISRDDSKSTIYLQMNSLRAEDTAVYYCRGTYYASKPFDYWGQGTTVTVSS VL: DVVMTQSPLSLSVTLGQPVSISCRSSQSLVHDNANTYLSWSLQRPGQSPRVLIYKVSNRFSGVPDRFSGSGSGTDFTLKISRVEAEDVGVYYCGQGTQYPFTFGSGTKLEIK |  |  |  | Kd [4]: 20.4 nM; koff [4]: 0.00486 s⁻¹; kon [4]: 238000 M⁻¹ s⁻¹
CODV-Fab BFX-9B8-G6 × CD3 (bispecific antibody, part only; not given: anti-CD3 arm, linkers, constant domains, V domains shown, not shown: another chain or arm of the molecule; a dimerising Fc or GST; small tags and cut ends) VL: DIVMTQSPSSLAVSAGETVTINCKSSQSFLSSGDERNYVAWYQHKPGQSPKLLIYWASTRHSGVPDRFIGSGSGTDFTLTISSVQAEDLAIYYCQQYYDTPLTFGSGTKLEIK VH: EVKLQESGPSLVQSSQTLSLTCTVSGFSLTSYHIHWVRQPPGKGLEWMGVMWSDGDTSYSSALKSRLSISRDTSQSQVFLKMNSLQTEDTATYYCARGDYSSYIYLWFAYWGQGTLVTVSS | 31.1% | 48.8% | 106 ng/mL | 
CODV-Fab BFX-3B10-E6 × CD3 (bispecific antibody, part only; not given: CD3 arm, linkers, constant domains, part only) light, part: DVLMTQTPVSLPVSLGGQVSISCRSSQSLVHSDGDTYLHWYLQKPGQSPQLLIYRVSNRFSGVPDRFSGSGSGTDFTLKISRVEPEDLGLYYCLQTTHFPPWTFGGGTKLEMK heavy, part: QVQLQQSGPELRRPGSSVRLSCKASGYRIKDFLIHWIKNRPEHGLEWIGWIDPEDGETKYAQKFQTKATLTADTSSNTAYMQLSSLTSEDTATYFCARWGDVYYGLMRGHVMDAWGQGTSVTVSS |  |  | 429 ng/mL | 
CODV-Fab BFX-9F6-G3 × CD3 (bispecific antibody, part only; not given: anti-CD3 arm, linkers, constant domains, V domains shown, not shown: another chain or arm of the molecule; a dimerising Fc or GST; small tags and cut ends) VL: DIQMTQSPASLSASLGETVTIECRPSEDIHSNVAWYQQKPGNSPQLLIYDASNLADGVPSRFSGSGSGTQYSLKINSLQSEDVASYFCHQYNIYPYTFGSGTKLELK VH: QVQLQESGPTLVKPGDSVKMSCKASGYTFTDYIIHWVKQSHGKSLEWIGYINPYSDGTNYNEKFKSKATLTVDKSTSTAYMEFSRLTSEDSAIYFCALNYGSYYAMDAWGQGTSVTVSS | 60.7% | 99.7% | 13.9 ng/mL | 
